Measurements published in patent publication US20220281931A1 (published 2022).
Values belong to the binder of their own block, whether it stands above or below them.

B3: SIAH1^SBD (tag-cleaved) (enzyme, human, UniProt Q8IUQ4 90-282, looked up)
chain: VANSVLFPCKYASSGCEITLPHTEKADHEELCEFRPYSCPCPGASCKWQGSLDAVMPHLMHQHKSITTLQGEDIVFLATDINLPGAVDWVMMQSCFGFHFMLVLEKQEKYDGHQQFFAIVQLIGTRKQAENFAYRLELNGHRRRLTWEATPRSIHEGIATAIMNSDCLVFDTSIAQLFAENGNLGINVTISMC
notes: range 90-282; also called recombinant SIAH1^SBD

Assays:
eGFPBCL6^1-275 = target: T1, eGFPBCL6^1-275 (human, UniProt P41182 1-275); experiment: immunofluorescence colocalization in HEK293T cells, 1 µM BI-3802
T1 construct: Expressed in HEK293T Cas9 cells; also called eGFPBCL6^275; minimal degradable construct; not shown: eGFP

[1] = target: T2, eGFPBCL6^FL 249-251 VSP>GSA (human, UniProt P41182 1-706); experiment: co-immunoprecipitation (GFP-trap) from HEK293T cells, BI-3802 or DMSO
T2 construct: Expressed in HEK293T Cas9 cells; also called BCL6 V×P motif mutant; not shown: eGFP
Description: (§1) The cells were harvested and lysed in RIPA lysis buffer (ThermoFisher Scientific, #89900) infused with protease inhibitor (ThermoFisher Scientific, Halt™ Protease Inhibitor Cocktail #78438) for 30 min at 4° C. […] Lysates were cleared by centrifugation (17,000 g, 20 min, 4° C.). 20 μL of pre-cleaned GFP-trap magnetic agarose beads (Chromotek, gmta-20) was added to the lysates. The beads-lysate mix was incubated at 4° C. for 30 min. Proteins were eluted in 2×sample buffer at 98° C. Eluates and whole-cell lysates were run on a polyacrylamide gel, transferred to a nitrocellulose membrane and immunoblotted for eGFP and V5.

eGFPBCL6^1-250 = target: T3, eGFPBCL6^1-250 (human, UniProt P41182 1-250); experiment: as above
T3 construct: Expressed in HEK293T Cas9 cells; also called eGFPBCL6^250; non-degradable eGFPBCL6^1-250 construct; not shown: eGFP
Description: as §1

SIAH1^SBD (tag-cleaved) = target: B3; experiment: isothermal titration calorimetry, peptide injected into SIAH1^SBD
Description: (§2) All calorimetric experiments were carried out using an Affinity ITC from TA Instruments (New Castle, Del.) equipped with auto sampler in a buffer containing 20 mM HEPES, pH 7.5, 150 mM NaCl, and 0.5 mM TCEP at 25° C. For the BCL6-SIAH1 interaction, 25 μM BCL6⁵⁻³⁶⁰ protein solution in the calorimetric cell was titrated by injecting 2 μL of 250 μM SIAH1^SBD protein solution in 200 sec intervals with stirring speed at 125 rpm. […] Resulting isotherm was fitted with a single site model to yield thermodynamic parameters of DH, DS, stoichiometry, and Kd using NanoAnalyze software (TA instruments).

[2] = target: T4, BodipyFL-labeled BCL6^5-360 (human, UniProt P41182 5-360, BodipyFL label (site not stated)); experiment: TR-FRET, apparent KD; BodipyFL-BCL6^5-360 titrated to biotinylated SIAH1^SBD in the presence of 2 µM BI-3802
T4 construct: also called BodipyBCL6^5-360; BodipyFL-BCL6^5-360
Description: Titrations of BodipyFL-BCL6⁵⁻³⁶⁰ were carried out by mixing 400 nM biotinylated Strep II Avi-tagged SIAH1^SBD, 2 μM compounds or equivalent volume of DMSO, and 4 nM terbium-coupled streptavidin in the same assay buffer. After dispensing the assay mixture, increasing concentration of BodipyFL-BCL6⁵⁻³⁶⁰ was added to the SIAH1 mixture in a […] (7.5 μL each, total 15 μL assay volume). The 520/490 nm ratios were measured in as described above and plotted to calculate the KD^APP values using dose-response analysis standard four parameter log-logistic curves using the dr4pl R package.

BCL6^5-360 (ITC) = target: T5, BCL6^5-360 (ITC) (human, UniProt P41182 5-360); experiment: isothermal titration calorimetry, SIAH1^SBD injected into BCL6^5-360
T5 construct: also called BCL6^5-360 protein
Description: as §2

Binder: EYSRPTLEVSPNVCHSNIYS (also called V×P-containing polypeptide) [BCL6^241-260 peptide]
binding result (SIAH1^SBD (tag-cleaved)): binds

Binder: B3
binding result (BCL6^5-360 (ITC)): binds

The remaining lines, values ahead:

binding result (eGFPBCL6^1-275): binds
binding result [1]: no binding
binding result (eGFPBCL6^1-250): no binding
B1: V5SIAH1^C44S (enzyme, UniProt Q8IUQ4 1-282, looked up)
chain: MSRQTATALPTGTSKCPPSQRVPALTGTTASNNDLASLFECPVSFDYVLPPILQCQSGHLVCSNCRPKLTCCPTCRGPLGSIRNLAMEKVANSVLFPCKYASSGCEITLPHTEKADHEELCEFRPYSCPCPGASCKWQGSLDAVMPHLMHQHKSITTLQGEDIVFLATDINLPGAVDWVMMQSCFGFHFMLVLEKQEKYDGHQQFFAIVQLIGTRKQAENFAYRLELNGHRRRLTWEATPRSIHEGIATAIMNSDCLVFDTSIAQLFAENGNLGINVTISMC
notes: Expressed from pLEX_307 in HEK293T Cas9 cells; also called V5SIAH1^44C>S; V5SIAH1^44>S; not shown: V5 tag

Kd [2]: 200 nM
B2: biotinylated Strep II Avi-tagged SIAH1^SBD (enzyme, human, UniProt Q8IUQ4 90-282, looked up)
chain: VANSVLFPCKYASSGCEITLPHTEKADHEELCEFRPYSCPCPGASCKWQGSLDAVMPHLMHQHKSITTLQGEDIVFLATDINLPGAVDWVMMQSCFGFHFMLVLEKQEKYDGHQQFFAIVQLIGTRKQAENFAYRLELNGHRRRLTWEATPRSIHEGIATAIMNSDCLVFDTSIAQLFAENGNLGINVTISMC
modifications: biotinylated (Avi tag)
notes: range 90-282; Captured through terbium-coupled streptavidin in TR-FRET; also called BiotinSIAH1^SBD; not shown: N-terminal Strep II-Avi tag
